This series can be described thus: soluble on expression in E. coli; label from the status in PepcDB or PDB records.
“SMQQLVLDPGFLGLEPLLDLLLGVHQELGASELAQDKYVADFLQWAEPIVVRLKEVRLQRDDFEILKVIGRGAFSEVAVVKMKQTGQVYAMKIMNKWDMLKRGEVSCFREERDVLVNGDRRWITQLHFAFQDENYLYLVMEYYVGGDLLTLLSKFGERIPAEMARFYLAEIVMAIDSVHRLGYVHRDIKPDNILLDRCGHIRLADFGSCLKLRADGTVRSLVAVGTPDYLSPEILQAVGGGPGTGSYGPECDWWALGVFAYEMFYGQTPFYADSTAETYGKIVHYKEHLSLPLVDEGVPEEARDFIQRLLCPPETRLGRGGAGDFRTHPFFFGLDWDGLRDSVPPFTPDFEGATDTCNFDLVEDGLTAMVSGGGETLSDIREGAPLGVHLPFVGYSYSCMALRDSEVPGPTP”: the “soluble on expression in E. coli” value is recorded as “soluble”.
As for “VILIIVAYLVGILIRKRNDSRIAQLEERKQKLFDLPINEEIEEVKNLHLIGQSQTTFREWNQKWIDISTNSFADIENHIFEAENMNDNFHFFKASAEINNIESQLDLVEEDIKSIREALSRLKEQEEKNSARVKHALDLYEELQNSIEGNSDNFGSTLDEITKQLKNIESEFAEFVTLNSSGDPVEASSILDRAEEHTIALGQITEKIPAIVAKLEDDFPDQLDDLESGYRKLIEQNYHFPEKNIERHFQEIREAIRSNSSELVSLDLDRAEEKNADIQEKIDNLYSIFEREIASYKVVMRQKKILPDYLKHAKENNKKLQEELERLMLTYIFDETYEADVRSFTSDISSVETAVLPTLENFDNQVKPFSELEKIFEKSLNTLSAVENGQVEVFENLRAIEKNEAKARDELDVYIDKLHVIKRYMEKRNLPGIPESFLSVFFSTSAQIEALMDELSRGRINIDAVMRLTKTSKNAIEHLEETAYLVVQNATLTEQLLQYSNRYRSFEPAVQSSFEHALKLFEVDHDYDASLEEISYALETVEPGVTDRFVSSYEK”, the “soluble on expression in E. coli” value is recorded as “not soluble”.
Take “EEVTVVAFAKQKKESVIGSIQTVKPAELKTPSSNLTTSLAGRMAGVIAYQRSGEPGKDNANFFIRGVTTFGYKKDPLILLDNVEVSSDDLARVQPDDIASFSVLKDATSTALYGARGANGVILVTTKEGKEG”: the “soluble on expression in E. coli” value is “not soluble”.
As to “MGSDKIHHHHHHMSKPGAELEEVFSSVQGEGMLIGLRQVFIRFRGCNLTCDYCDTPAGTPAEPCRIEQTPGRRDFVPADNPVSLDRVAALVEGWQRGWPGVHDSISITGGEPLLRHDILMQWLPVLREHLPVYLETNGVMHAALGLVINHVDIIGMDIKIPSTSGCTDLWDDHRQFLEIANTRRAFIKIVVGEETEDWEITRASEIIAGVNRDIPLILQPVTRAGDTLGIKPVKALELQELACRYLAEVRIIPQTHRFMGQL”, the “soluble on expression in E. coli” value is recorded as “not soluble”.
Consider “RIETDERDSTNRASFKCPVCSSTFTDLEANQLFDPMTGTFRCTFCHTEVEEDESAMPKKDAR”, for which the “soluble on expression in E. coli” value is “soluble”.
On to “MGSDKIHHHHHHMQISFISHEYPPVSGGGSTALHEYASGLATRGHAVQVVTVGTGAHDTVDTEDGVQVVRLAAGRKSLLAPSKAELIRSCAALRLKSMPHLRRHEPEVLVAFFAFPAGFLAAPLAAKLNIPLVVSLRGSDVPGFSAKRLGVFGPLLPYLFRRATRHAAAVVPNGRRLADMAAPYLHTGSRVQVIPNGVDTLRFAPQGAEHGSMGGPLRVLFVGQMIARKQCLVLAQALHEVAARGVPLQVSFAGSGPLEQDIRRIVSSLDPVVGVTFTGHVPRNAIADLYGAHDVLVHLSQAEGVSNVLMEALSSGLCLVAADTAVDAAIDGVPRQAPAEDGGIILLPVDCGPVVLGATLAGLACNRSLVEEQQRLARRTALKNSWQVRVGELEDLLTGSIAGCQAS”, for which the “soluble on expression in E. coli” value is recorded as “not soluble”.
Take “MQTRATPAPAAPLERFNAAPAEEAAGTLLACLHSRAWADRLVAHRPYPDLPALLAAADEAAYDLSSDDLSEALAAETLPALPEDTYAAAHTALSAAHAAYESRFGHVFVISLDGLSPEETLNHVLAAIRSRLANDPDEERLVASEELRRLAGGRVRRLLGARGTARPATDDPHPANHTKPPPPLEHHHHHH”: the “soluble on expression in E. coli” value was “soluble”.
Turning to “MGSDKIHHHHHHMQNPRRICVADPNHRLSQKRFTRNSRDIFICPDCGCIMADVDFDHDQYESGDYYTMQHKTVQSIEEVWGFRWRYILDQILKINGRSSLLDVGAGNGYFVALASREFSFDASGLEISQEEVQFAADVLNIGLIREDLTQHNLDYDVVTCLNVLEHVVDPQLFLSHLVNRVKPGGLLVITTPNPACIHRKVKGLKNWNMIAPPHHINLFTKESLYILLMRYGLIQLDYQTISTYVNFVRGFDTENLLLRRLFFNLLKIFDLGADHFFIVKKPSQC”, the “soluble on expression in E. coli” value was “not soluble”.
As to “GPGSMDDRSLKLAEDFVSARYIDAGRESLRSTARILRSILAQRCCPDEGLTDAAIELILRQLSLMDTNNFARHVGGGEREGRVVSALVRMRHFHLTHGVGRSGDLFSEQPKAAGSSLLYKITNVLMLDLIRQAGAPSTAAAVVVPMA”, the “soluble on expression in E. coli” value was “not soluble”.
Turning to “GPGSMPSPLVLTRAAPARGLNVKMFDRKVKGLQRSFVSSPACDLHKLCAQQMLDRRTFVKRDTPVVLEVGAHTGWYLRHMIERKEFHGLKQYIQTDISEDRLNRNYEEIKNIIPPEVEFVQICCDEEQPSPFGIPDKSVDMVVSCLSMHWVNDLETSMVNVRKVLKRDGFFLNAMFGGNTLYELRGCFSMAQTETLGGVSPHVSPMIDGAGLSTLVLQAGFNIPTIDLDRHLLLYETPFHLMEHLAVMGESACHYMRQPMKRDVLLCACAIYDTMYKQNGLFPATFEVFHTIAWSPSPTQAKPLARGSGQIPLSSWNSKSRKQLQSVLDEYALNPNDEVLQNKAEDIFKKLREESAELMAKKGLDSRGFERDRDEEARRLDEKPVPPFQ”, the “soluble on expression in E. coli” value is “not soluble”.
For “MSLMSNDRKVTEIENSPVTEVRPEEHAWYPDDSALAAPPAATPAAISDQLPSDRYLNRELSWLDFNARVLALAADKSMPLLERAKFLAIFASNLDEFYMVRVAGLKRRDEMGLSVRSADGLTPREQLGRIGEQTQQLASRHARVFLDSVLPALGEEGIYIVTWADLDQAERDRLSTYFNEQVFPVLTPLAVDPAHPFPFVSGLSLNLAVTVRQPEDGTQHFARVKVPDNVDRFVELAAREASEEAAGTEGRTALRFLPMEELIAAFLPVLFPGMEIVEHHAFRITRNADFEVEEDRDEDLLQALERELARRRFGSPVRLEIADDMTESMLELLLRELDVHPGDVIEVPGLLDLSSLWQIYAVDRPTLKDRTFVPATHPAFAERETPKSIFATLREGDVLVHHPYDSFSTSVQRFIEQAAADPNVLAIKQTLYRTSGDSPIVRALIDAAEAGKQVVALVEIKARFDEQANIAWARALEQAGVHVAYGLVGLKTHCKTALVVRREGPTIRRYCHVGTGNYNSKTARLYEDVGLLTAAPDIGADLTDLFNSLTGYSRKLSYRNLLVAPHGIRAGIIDRVEREVAAHRAEGAHNGKGRIRLKMNALVDEQVIDALYRASRAGVRIEVVVRGICALRPGAQGISENIIVRSILGRFLEHSRILHFRAIDEFWIGSADMMHRNLDRRVEVMAQVKNPRLTAQLDELFESALDPCTRCWELGPDGQWTASPQEGHSVRDHQESLMERHRSEGHHHHHH”, the “soluble on expression in E. coli” value is recorded as “soluble”.
In the case of “MGSDKIHHHHHHVVVMSKVLLNIGCADVDKPGYINVDARKTKVTHLVSNAWDLDCFEENSVHEIYSRHMLEHLNPEYAKLALQKWFYILEPEGKLVVIVPDIEFHARQLLGVSRSSFGDQMEHAFAGFWGWREKERGGSDFDAHQWGYTVATLENEIGAVGFERIERVVEGVDSEPWHLQMTARKPMTSLCCPMDFRGPFP”, the “soluble on expression in E. coli” value was “not soluble”.
For “MGSDKIHHHHHHMRIQQLRYLEKIATTGSINEAAKQLFISQPSLSQAMKELEKEYQVQLFYRHKTGITLTDAGREFINYSRSVLDQVNLLNEHFGQGTVRKRIFSVSAQHYAFVVNAFVELVKEIGGDTYQFTLRETETANVLNDVQTLKSELGVIYLNKFNQTVLSRLIADKDLSFVPLFEARPHVFVGRDNPLTHKQDLTLDDLRDYPYLSYEQGDTSSFYFAEEILSTLPHKKHIRISDRATIFNLMVGLNGYTISSGIISSELNDEKIVAIPLKVDDAMTLGYLRHKKIELSATAQRYLTLLKQHIQGYGFDVFNDN”, the “soluble on expression in E. coli” value was “not soluble”.
The entry for “MHMEQDVNAALRPAYRHRYLQKGHHHSRNAVVDHQELTEKLNRLTSTSSLGSSLPSLSSLHSNSSIGTMPSAKIGDGSTSSLPMSSAKPMSTQTSEPQLPDVPEPNESLHNKTIDEFQKDQEKCDRLKARKAELEMRLRQKMQELKDVCVEEGDITGEMPVEINDVVLPGDDFPRLKRRVGTAYSIPDELIKADKADKMSQLETDVELHRRIVAAASRLATDKNTNKSVRKKRQKDLQAARLRLNRLEQGLQQMRHSASKPDISSLTSDSSNSWTASNSSGPMLTMAMTKSCPTTPRGSVPDLRNGLDDEKDEFDENVEDRVSRRAPSAISRHSLSQRYSGVSSSSTSSGSDSMGLGLPPRPTSRKSQQQQTTPFDDQLDNPMICEIPPPPSSAAAHPLYENVGYRSTSYRSSYRQAHYPTIQDEHTQRKRAQSAHSISTDNGATGRTSTYSVPLNDAAQKFREYDYDDEEDSTPTMDLPSHLINVRRLTSSISCQAGFATASLDRRYSKLNGGRLSSGGGGSDDVVRQNVTTRITTFPVATSAATVILSGKPYSASELPRFQPPPPVARVTHMPRGSLPPYSSATMGAQSPAPPPNGKLPTNPQMEALLSYYKQQQQQQHQQQSRSAPSQQPKTATIV” is “not soluble”; for “VNSHCSHTFITDNRSPRARRGHAMSTLHKVKAYFGMAPMEDYDDEYYDDRAPSRGYARPRFDDDYGRYDGRDYDDARSDSRGDLRGEPADYPPPGYRGGYADEPRFRPREFDRAEMTRPRFGSWLRNSTRGALAMDPRRMAMMFEDGHPLSKITTLRPKDYSEARTIGERFRDGSPVIMDLVSMDNADAKRLVDFAAGLAFALRGSFDKVATKVFLLSPADVDVSPEERRRIAETGFYAYQ” it is “not soluble”; for “MAITQKRPVYLQLVDRIKNEVATDVLSANDQLPSVRETALQEKINPNTVAKAYKELEAQKVIRTIPGKGTFITGNTASVKNSNQNRLLADLSQVIAELIKSGVKGERIKKIVNDILGGKNAEN” it is “soluble”.
For “MGSDKIHHHHHHMGEMVELKKELLRDVDLAERLLGRERPVKSEIEIRGKITRSTIEEISRIKKEPEWMKRLRLRSLELFYKLPTPKWLVGIDVIDLDEMIVYSKPETERASSWEELPKEIREFYERLGLPEIEARFLSGLSAVFDSETVYARVKKYLEEKGVIVMPIEEAVQKYPDLVKRYFMRVFPPSDHKFAALHGALWSGGTFIYVPRGVKIREPIESFFLIGKSGEGQFEHSLIVADEGAYVEWIEGCSAPRLTKFSFHDGMVEAYAHRNATIKIITVQNWSKDVINLNNKRAIAEEGARVDWVEGSIGSKMTFVYPSTILKGDNSSSRSAVVTIAKGPYLKDSGSKMIHVGRNTRSQVINKTISADGGINVYRGIIRIVKGARNAVANVECESLILDDKSKAHTYPHNQVDEPTASVNHEATTGRLTEPQLFYLTSRGLTEEEAKSLIVLGFLEDVLKELPFEYANVLTKVVRLEFSEYGAFG”, the “soluble on expression in E. coli” value is given as “not soluble”.
On to “MSLNQTFDKENLESKNTQNLQKSKNPTSQLSKTILKEEFNFLPNDVEINWKGRVLVIGDIHGDLKSLITSLFLSGVINSNLDWIAKNTLLIQLGDVVDRGSHALQIYKLFNKLKSQAPSLGSKFVGLLGNHEVMNLCGQLHYVTDEDFQTYGGRDNRTFEWSKEGFVGKYLRTMKLAIRVNDSLYVHAGLLPKYAKLGLDKLDKLSNDLLEGDFCDFYSSLFFVEDGPLWTRDISLGEEEKACKLVDETLQILGLSRMVVGHTIQHDNRINIKCDNKLILADTGFSEAIYGKPCMLEILYHNDNPDPSNYKSFHPYSEGHHHHHH”, for which the “soluble on expression in E. coli” value is reported as “not soluble”.
The entry for “MIEIEINNAQEITSALERLAQATAHRAPLMRSIAGTMESAVAQNFEVGGRPAWKKLKIRQGTPLVDTENLMASITSEYNNNEAIVGTNEPYAAIHQFGGKAGRGRKVAIPARPFLILTPQDEADILEDIQDYFQLLIK” is “not soluble”.

(Values after the DeepSol protein solubility set.)
